According to US20160153985A1:

How the values were obtained:
[1] = target: pure human iC3b (Complement Technology, A115) (human) (UniProt P01024); assay: sandwich ELISA, capture A209 (Example 5), goat anti-C3-HRP; TABLE 6 well A3, blocker
[2] = target: pure human iC3b (Complement Technology, A115) (human) (UniProt P01024); assay: sandwich ELISA, capture A209 (Example 5), goat anti-C3-HRP; TABLE 6 well A5, blocker
[3] = target: pure human iC3b (Complement Technology, A115) (human) (UniProt P01024); assay: sandwich ELISA, capture A209 (Example 5), goat anti-C3-HRP; TABLE 6 well A6, blocker
[4] = target: pure human iC3b (Complement Technology, A115) (human) (UniProt P01024); assay: sandwich ELISA, capture A209 (Example 5), goat anti-C3-HRP; TABLE 6 well B3, blocker
[5] = target: pure human iC3b (Complement Technology, A115) (human) (UniProt P01024); assay: sandwich ELISA, capture A209 (Example 5), goat anti-C3-HRP; TABLE 6 well B4, blocker
[6] = target: pure human iC3b (Complement Technology, A115) (human) (UniProt P01024); assay: sandwich ELISA, capture A209 (Example 5), goat anti-C3-HRP; TABLE 6 well B5, blocker
[7] = target: pure human iC3b (Complement Technology, A115) (human) (UniProt P01024); assay: sandwich ELISA, capture A209 (Example 5), goat anti-C3-HRP; TABLE 6 well B6, blocker
[8] = target: pure human iC3b (Complement Technology, A115) (human) (UniProt P01024); assay: sandwich ELISA, capture A209 (Example 5), goat anti-C3-HRP; TABLE 6 well C2, 30% vitreous
[9] = target: pure human iC3b (Complement Technology, A115) (human) (UniProt P01024); assay: sandwich ELISA, capture A209 (Example 5), goat anti-C3-HRP; TABLE 6 well C8, 30% vitreous
[10] = target: pure human iC3b (Complement Technology, A115) (human) (UniProt P01024); assay: sandwich ELISA, capture A209 (Example 5), goat anti-C3-HRP; TABLE 6 well C9, 30% vitreous
[11] = target: pure human iC3b (Complement Technology, A115) (human) (UniProt P01024); assay: sandwich ELISA, capture A209 (Example 5), goat anti-C3-HRP; TABLE 6 well D5, 30% vitreous
[12] = target: pure human iC3b (Complement Technology, A115) (human) (UniProt P01024); assay: sandwich ELISA, capture A209 (Example 5), goat anti-C3-HRP; TABLE 6 well D6, 30% vitreous
[13] = target: pure human iC3b (Complement Technology, A115) (human) (UniProt P01024); assay: sandwich ELISA, capture A209 (Example 5), goat anti-C3-HRP; TABLE 6 well D7, 30% vitreous
[14] = target: pure human iC3b (Complement Technology, A115) (human) (UniProt P01024); assay: sandwich ELISA, capture A209 (Example 5), goat anti-C3-HRP; TABLE 6 well E2, 20% vitreous
[15] = target: pure human iC3b (Complement Technology, A115) (human) (UniProt P01024); assay: sandwich ELISA, capture A209 (Example 5), goat anti-C3-HRP; TABLE 6 well E3, 20% vitreous
[16] = target: pure human iC3b (Complement Technology, A115) (human) (UniProt P01024); assay: sandwich ELISA, capture A209 (Example 5), goat anti-C3-HRP; TABLE 6 well F4, 20% vitreous
[17] = target: pure human iC3b (Complement Technology, A115) (human) (UniProt P01024); assay: sandwich ELISA, capture A209 (Example 5), goat anti-C3-HRP; TABLE 6 well F7, 20% vitreous
[18] = target: pure human iC3b (Complement Technology, A115) (human) (UniProt P01024); assay: sandwich ELISA, capture A209 (Example 5), goat anti-C3-HRP; TABLE 6 well G4, 10% vitreous
[19] = target: pure human iC3b (Complement Technology, A115) (human) (UniProt P01024); assay: sandwich ELISA, capture A209 (Example 5), goat anti-C3-HRP; TABLE 6 well G6, 10% vitreous
[20] = target: pure human iC3b (Complement Technology, A115) (human) (UniProt P01024); assay: sandwich ELISA, capture A209 (Example 5), goat anti-C3-HRP; TABLE 6 well G7, 10% vitreous
[21] = target: pure human iC3b (Complement Technology, A115) (human) (UniProt P01024); assay: sandwich ELISA, capture A209 (Example 5), goat anti-C3-HRP; TABLE 6 well H2, 10% vitreous
[22] = target: pure human iC3b (Complement Technology, A115) (human) (UniProt P01024); assay: sandwich ELISA, capture A209 (Example 5), goat anti-C3-HRP; TABLE 6 well H3, 10% vitreous
[23] = target: pure human iC3b (Complement Technology, A115) (human) (UniProt P01024); assay: sandwich ELISA, capture A209 (Example 5), goat anti-C3-HRP; TABLE 6 well H5, 10% vitreous
[24] = target: pure human iC3b (Complement Technology, A115) (human) (UniProt P01024); assay: sandwich ELISA, capture A209 (Example 5), goat anti-C3-HRP; TABLE 6 well H7, 10% vitreous
[25] = target: pure human iC3b (Complement Technology, A115) (human) (UniProt P01024); assay: sandwich ELISA, capture A209 (Example 5), goat anti-C3-HRP; TABLE 7, iC3b in 20% vitreous

Sequence of UniProt P01024 (P01024 23-667 limits assumed, chain 1 of 3): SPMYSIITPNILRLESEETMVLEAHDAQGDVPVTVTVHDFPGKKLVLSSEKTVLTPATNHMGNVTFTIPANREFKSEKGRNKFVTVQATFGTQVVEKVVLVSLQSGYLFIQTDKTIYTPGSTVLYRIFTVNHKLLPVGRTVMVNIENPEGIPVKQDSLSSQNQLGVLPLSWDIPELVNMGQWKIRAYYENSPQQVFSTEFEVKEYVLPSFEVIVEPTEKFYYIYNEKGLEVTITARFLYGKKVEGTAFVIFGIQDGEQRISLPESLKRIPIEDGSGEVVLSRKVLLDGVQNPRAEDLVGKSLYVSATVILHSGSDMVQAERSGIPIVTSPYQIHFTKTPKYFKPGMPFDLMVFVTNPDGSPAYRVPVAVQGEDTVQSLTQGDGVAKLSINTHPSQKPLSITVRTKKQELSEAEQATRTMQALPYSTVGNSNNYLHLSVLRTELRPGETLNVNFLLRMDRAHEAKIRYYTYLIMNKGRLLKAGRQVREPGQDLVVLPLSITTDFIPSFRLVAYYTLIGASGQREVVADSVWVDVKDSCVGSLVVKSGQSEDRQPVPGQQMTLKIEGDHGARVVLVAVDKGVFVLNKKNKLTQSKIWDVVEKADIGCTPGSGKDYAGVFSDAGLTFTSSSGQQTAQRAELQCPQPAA
Sequence of UniProt P01024 (P01024 749-1303 limits assumed, chain 2 of 3): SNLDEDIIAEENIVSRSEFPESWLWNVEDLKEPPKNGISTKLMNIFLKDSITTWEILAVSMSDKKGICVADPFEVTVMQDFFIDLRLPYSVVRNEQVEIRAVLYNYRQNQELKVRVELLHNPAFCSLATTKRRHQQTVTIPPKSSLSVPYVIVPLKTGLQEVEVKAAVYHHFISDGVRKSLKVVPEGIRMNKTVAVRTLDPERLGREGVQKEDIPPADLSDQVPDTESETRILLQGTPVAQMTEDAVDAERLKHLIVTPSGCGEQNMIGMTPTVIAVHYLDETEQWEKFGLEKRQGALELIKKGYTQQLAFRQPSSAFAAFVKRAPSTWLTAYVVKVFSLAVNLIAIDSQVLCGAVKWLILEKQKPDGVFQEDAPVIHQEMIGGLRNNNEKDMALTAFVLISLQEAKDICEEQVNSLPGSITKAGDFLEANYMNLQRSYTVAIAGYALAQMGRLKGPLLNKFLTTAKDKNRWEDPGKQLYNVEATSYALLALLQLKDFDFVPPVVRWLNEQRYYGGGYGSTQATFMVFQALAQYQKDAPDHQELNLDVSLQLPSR
Sequence of UniProt P01024 (P01024 1321-1663 limits assumed, chain 3 of 3): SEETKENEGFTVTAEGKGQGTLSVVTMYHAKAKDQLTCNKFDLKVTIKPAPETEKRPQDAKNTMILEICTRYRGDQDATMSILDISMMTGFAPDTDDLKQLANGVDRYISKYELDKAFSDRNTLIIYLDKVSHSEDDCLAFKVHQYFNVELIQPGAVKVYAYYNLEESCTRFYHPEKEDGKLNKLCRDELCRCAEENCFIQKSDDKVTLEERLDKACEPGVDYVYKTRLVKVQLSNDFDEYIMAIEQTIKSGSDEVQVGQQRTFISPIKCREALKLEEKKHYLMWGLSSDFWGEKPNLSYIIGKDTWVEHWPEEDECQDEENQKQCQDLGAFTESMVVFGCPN

raw A450 at iC3b 0.5 ug/ml [1]: 0.258 OD | raw A450 at iC3b 0.125 ug/ml [2]: 0.106 OD | raw A450 at iC3b 0.063 ug/ml [3]: 0.064 OD | raw A450 at iC3b 0.5 ug/ml [4]: 0.265 OD | raw A450 at iC3b 0.25 ug/ml [5]: 0.167 OD | raw A450 at iC3b 0.125 ug/ml [6]: 0.1 OD | raw A450 at iC3b 0.063 ug/ml [7]: 0.07 OD | raw A450 at iC3b 1 ug/ml [8]: 0.443 OD | raw A450 at iC3b 0.016 ug/ml [9]: 0.336 OD | raw A450 at iC3b 0.0078 ug/ml [10]: 0.368 OD | raw A450 at iC3b 0.125 ug/ml [11]: 0.391 OD | raw A450 at iC3b 0.063 ug/ml [12]: 0.362 OD | raw A450 at iC3b 0.031 ug/ml [13]: 0.356 OD | raw A450 at iC3b 1 ug/ml [14]: 0.485 OD | raw A450 at iC3b 0.5 ug/ml [15]: 0.442 OD | raw A450 at iC3b 0.25 ug/ml [16]: 0.435 OD | raw A450 at iC3b 0.031 ug/ml [17]: 0.333 OD | raw A450 at iC3b 0.25 ug/ml [18]: 0.28 OD | raw A450 at iC3b 0.063 ug/ml [19]: 0.254 OD | raw A450 at iC3b 0.031 ug/ml [20]: 0.248 OD | raw A450 at iC3b 1 ug/ml [21]: 0.42 OD | raw A450 at iC3b 0.5 ug/ml [22]: 0.316 OD | raw A450 at iC3b 0.125 ug/ml [23]: 0.3 OD | raw A450 at iC3b 0.031 ug/ml [24]: 0.231 OD | A450 minus matrix average at iC3b 0.0078 ug/ml [25]: -0.002 OD | A450 minus matrix average at iC3b 0.016 ug/ml [25]: 0 OD | A450 minus matrix average at iC3b 0.031 ug/ml [25]: 0.012 OD | A450 minus matrix average at iC3b 0.063 ug/ml [25]: 0.03 OD | A450 minus matrix average at iC3b 0.25 ug/ml [25]: 0.099 OD | A450 minus matrix average at iC3b 0.5 ug/ml [25]: 0.122 OD | A450 minus matrix average at iC3b 1 ug/ml [25]: 0.182 OD
Substance: mouse anti-iC3b antibody A209 (Quidel)
